Where a chain is given by its changes, count along the chain named. Names and notes keep the numbering of the source.
B1: 4B6-HgLa scFv (wild-type sequence for affinity maturation) (scFv)
scFv: DIQMTQSPSSLSASVGDRVTITCKASQNVGAAVAWYQQKPGKAPKLLIYSASNRYTGVPSRFSGSGSGTDFTLTISSLQPEDIATYYCQQYSNYPTFGQGTKLEIKGGGGSGGGGSGGGGSQVQLVQSGAEVKKPGASVKVSCKASGYVFTDYYMNWVRQAPGQSLEWMGDINPNNAGTSYNHKFKGRVTVTVDKSISTAYMELSRLRSDDTAVYYCVKWGDGPFAYWGQGTLVTVSS
notes: written VL-linker-VH; also called L-CDR1-WT; L-CDR2-WT
B2: 4B6 scFv variant L-CDR1-1 (scFv)
scFv: B1 scFv with A32I
notes: also called 4B6-L-CDR1-1
B3: 4B6 scFv variant L-CDR1-2 (scFv)
scFv: B1 scFv with G30P
notes: also called 4B6-L-CDR1-2
B4: 4B6 scFv variant L-CDR1-3 (scFv)
scFv: B1 scFv with G30K, A31G
notes: also called 4B6-L-CDR1-3
B5: 4B6 scFv variant H-CDR2-1 (scFv)
scFv: B1 scFv with G178D, S180M
notes: also called 4B6-H-CDR2-1
B6: 4B6 scFv variant H-CDR2-2 (scFv)
scFv: B1 scFv with G178Q, S180Q
notes: also called 4B6-H-CDR2-2
B7: 4B6 scFv variant H-CDR2-3 (scFv)
scFv: B1 scFv with G178E, S180L
notes: also called 4B6-H-CDR2-3
B8: 4B6 scFv variant H-CDR2-4 (scFv)
scFv: B1 scFv with A177G, G178L
notes: also called 4B6-H-CDR2-4
B9: 4B6 scFv variant H-CDR2-5 (scFv)
scFv: B1 scFv with G178Q, S180V
notes: also called 4B6-H-CDR2-5
B10: IgG-scFv-ACZ885-AM4B6 (bispecific antibody)
heavy: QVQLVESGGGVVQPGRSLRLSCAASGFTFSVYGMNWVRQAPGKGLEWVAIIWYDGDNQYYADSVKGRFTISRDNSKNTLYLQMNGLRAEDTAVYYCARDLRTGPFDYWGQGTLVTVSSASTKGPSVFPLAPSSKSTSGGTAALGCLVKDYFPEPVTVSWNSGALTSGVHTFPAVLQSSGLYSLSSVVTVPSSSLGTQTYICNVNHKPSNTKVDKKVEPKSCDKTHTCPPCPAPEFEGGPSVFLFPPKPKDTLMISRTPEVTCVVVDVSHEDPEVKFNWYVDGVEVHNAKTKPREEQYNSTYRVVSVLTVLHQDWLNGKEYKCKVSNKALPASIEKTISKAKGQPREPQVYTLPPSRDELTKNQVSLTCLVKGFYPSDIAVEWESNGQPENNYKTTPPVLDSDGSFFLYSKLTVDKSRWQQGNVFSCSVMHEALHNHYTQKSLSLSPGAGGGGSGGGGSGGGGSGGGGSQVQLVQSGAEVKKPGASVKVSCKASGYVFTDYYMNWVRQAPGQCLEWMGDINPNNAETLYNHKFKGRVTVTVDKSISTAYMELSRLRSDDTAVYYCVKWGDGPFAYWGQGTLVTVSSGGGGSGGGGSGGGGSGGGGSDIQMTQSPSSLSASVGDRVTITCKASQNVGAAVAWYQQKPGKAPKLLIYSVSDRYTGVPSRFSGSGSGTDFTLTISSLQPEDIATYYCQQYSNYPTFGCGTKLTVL
light: EIVLTQSPDFQSVTPKEKVTITCRASQSIGSSLHWYQQKPDQSPKLLIKYASQSFSGVPSRFSGSGSGTDFTLTINSLEAEDAAAYYCHQSSSLPFTFGPGTKVDIKRTVAAPSVFIFPPSDEQLKSGTASVVCLLNNFYPREAKVQWKVDNALQSGNSQESVTEQDSKDSTYSLSSTLTLSKADYEKHKVYACEVTHQGLSSPVTKSFNRGEC
notes: Anti-IL-1β IgG (Canakinumab) with the AM4B6 scFv on the C-terminus of the heavy chain
B11: Chimeri 4B6 (antibody, V domains shown)
VH: EVQLQQSGPELVKPGASVKISCKASGYVFTDYYMNWVKQSHGKSLEWIGDINPNNGGTSYNHKFKGKATVTVDKSSRTAYMELLSLTSEDSAVYYCVKWGDGPFAYWGQGTLVTVSA
VL: DIVMTQSQKFMSTSVGDRVSITCKASQNVGAAVAWYQQKPGQSPKLLIYSASNRYTGVPDRFTGSGSGTDFTLTISNMQSEDLADYFCQQYSNYPTFGSGTKLGIK
notes: spelling as printed; also called chimeric 4B6; mouse/chimeric antibody 4B6
B12: Hu4B6_HbLa (antibody, human IgG1, V domains shown)
VH: QVQLVQSGAEVKKPGASVKVSCKASGYTFTDYYMNWVRQAPGQGLEWMGDINPNNGGTSYNHKFKGRVTVTVDTSISTAYMELSRLRSDDTAVYYCVKWGDGPFAYWGQGTLVTVSS
VL: DIQMTQSPSSLSASVGDRVTITCKASQNVGAAVAWYQQKPGKAPKLLIYSASNRYTGVPSRFSGSGSGTDFTLTISSLQPEDIATYYCQQYSNYPTFGQGTKLEIK
B13: Hu4B6_HaLa (antibody, human IgG1, V domains shown)
VH: B12 VH with V97A, K98R
VL: B12 VL
B14: Hu4B6_HaLb (antibody, human IgG1, V domains shown)
VH: B12 VH with V97A, K98R
VL: B12 VL with A43S, S60D
B15: Hu4B6_HbLb (antibody, human IgG1, V domains shown)
VH: B12 VH
VL: B12 VL with A43S, S60D
B16: Hu4B6_HcLa (antibody, human IgG1, V domains shown)
VH: B12 VH with T28V, T74K, V97A, K98R
VL: B12 VL
B17: Hu4B6_HcLb (antibody, human IgG1, V domains shown)
VH: B12 VH with T28V, T74K, V97A, K98R
VL: B12 VL with A43S, S60D
B18: Hu4B6_HdLa (antibody, human IgG1, V domains shown)
VH: B12 VH with T28V, G44S, T74K
VL: B12 VL
B19: Hu4B6_HdLb (antibody, human IgG1, V domains shown)
VH: B12 VH with T28V, G44S, T74K
VL: B12 VL with A43S, S60D
B20: ACZ885 (antibody, V domains shown)
VH: QVQLVESGGGVVQPGRSLRLSCAASGFTFSVYGMNWVRQAPGKGLEWVAIIWYDGDNQYYADSVKGRFTISRDNSKNTLYLQMNGLRAEDTAVYYCARDLRTGPFDYWGQGTLVTVSS
VL: EIVLTQSPDFQSVTPKEKVTITCRASQSIGSSLHWYQQKPDQSPKLLIKYASQSFSGVPSRFSGSGSGTDFTLTINSLEAEDAAAYYCHQSSSLPFTFGPGTKVDIK
notes: Monoclonal anti-IL-1β antibody; also called Canakinumab
B21: 4B6 scFv variant L-CDR2-1 (scFv)
scFv: B1 scFv with A51N, N53H
notes: also called 4B6-L-CDR2-1
B22: 4B6 scFv variant L-CDR2-2 (scFv)
scFv: B1 scFv with A51R, N53V
notes: also called 4B6-L-CDR2-2
B23: 4B6 scFv variant L-CDR2-3 (scFv)
scFv: B1 scFv with A51V, N53D
notes: also called 4B6-L-CDR2-3
B24: Hu4B6_HgLa (antibody, V domains shown)
VH: B12 VH with T28V, G44S, G56A, T74K
VL: B12 VL
notes: Hu4B6_Hd with G55A, paired with Hu4B6_La

Molecular target: T1, human PD-L1-Fc (human, UniProt Q9NZQ7 19-239)
T1 construct: also called hPD-L1-Fc; human PD-L1-Fc (Sino Biological, 70110-D02H); not shown: Fc part
Assay: BLI; PD-L1-Fc loaded on the sensor, scFv in solution

Kd [nM]	kon [M⁻¹ s⁻¹]	Binder
28.2	35800	B1
6.91	41200	B2
5.68	271000	B3
2.78	91100	B4

Molecular target: T1, human PD-L1-Fc
Assay: as above
Remark: another data set of the same source

Kd [nM]	kon [M⁻¹ s⁻¹]	Binder
26.7	46300	B1
3.52	141000	B5
2.42	101000	B6
2.43	116000	B7
4.43	117000	B8
2.4	102000	B9

Molecular target: T1, human PD-L1-Fc
Assay: BLI; against L-CDR1-WT

Fold increase [fold]	Binder
4.08	B2
4.96	B3
10.1	B4

Molecular target: T2, human PD-L1 expressed on cells (human, UniProt Q9NZQ7 19-290)
T2 construct: whole, on cells; also called MC38/hPD-L1
Assay: flow cytometry on 293T-PD-L1-CD3L cells, Mean FITC-A as printed

EC50 [nM]	Binder
1.51	B10

Molecular target: T2, human PD-L1 expressed on cells
Assay: cell-based or functional assay

IC50 (so in the source), luminescence (axis printed OD450), 293T-PD-L1-CD3L cells with Jurkat-NFAT-Luc-PD1 cells [nM]	Binder
~1.29	B10

Molecular target: T3, human PD-L1-His (human, UniProt Q9NZQ7 19-238, limits assumed)
T3 construct: not shown: His tag
Assay: ELISA, human PD-L1-His coated, anti-human IgG-HRP, OD450

EC50 [nM]	Binder
2.05	B11
2.38	B12
5.16	B13
6.26	B14
2.81	B15
5.74	B16
3.44	B17
1.04	B18
1.47	B19

Molecular target: T4, Human IL-1β protein (Sino Biological, Cat #10139) (human, UniProt P01584 117-269)
Assay: cell-based or functional assay

IC50, SEAP at OD620, HEK293-CD40L reporter cells stimulated with human IL-1β [nM]	Binder
0.346	B10
0.294	B20

Molecular target: T1, human PD-L1-Fc
Assay: BLI; PD-L1-Fc loaded on the sensor, scFv in solution
Remark: another data set of the same source

Kd [nM]	kon [M⁻¹ s⁻¹]	Binder
27.6	38100	B1
8.06	46800	B21
3.34	162000	B22
4.37	124000	B23

Molecular target: T1, human PD-L1-Fc
Assay: BLI; against L-CDR2-WT

Fold increase [fold]	Binder
3.42	B21
8.26	B22
6.32	B23

Molecular target: T1, human PD-L1-Fc
Assay: BLI; against H-CDR2-WT (G55A)

Fold increase [fold]	Binder
7.6	B5
11	B6
11	B7
6.03	B8
11.1	B9

Molecular target: T3, human PD-L1-His
Assay: ELISA, human PD-L1 coated, OD450

EC50 [nM]	Binder
0.347	B18
0.407	B24

Molecular target: T5, hPD-L1 (Acro Biosystems, PD1-H5229) (human, UniProt Q9NZQ7 19-238)
T5 construct: also called human PD-L1; hPD-L1 protein
Assay: ELISA, hPD-L1 coated, anti-human Fc-HRP, OD450

EC50 [nM]	Binder
0.0363	B10

Molecular target: T4, Human IL-1β protein (Sino Biological, …)
Assay: ELISA, hIL-1β protein coated, anti-human Fc-HRP, OD450

EC50 [nM]	Binder
0.0182	B10
0.0113	B20
